Broadly, the IC50 is the midpoint of a concentration-inhibition curve. Read a high IC50 as a need for much substance. In general, Kd refers to the concentration at which binding is half-saturated.

Assay [1] addresses HLA-A*01:01. Description: IEDB peptide-MHC binding, purified MHC/competitive/fluorescence; ≥ and ≤ were set here for values at or beyond the usual limits of such assays. The settings on record: source organism: Zaire ebolavirus.
The target in assay [2] is HLA-B*35:01. Description: IEDB peptide-MHC binding, purified MHC/direct/fluorescence; filed as Kd, often an IC50 or EC50 that approximates it; ≥ and ≤ were set here for values at or beyond the usual limits of such assays. Conditions: source organism: Vibrio vulnificus YJ016.
The target of a further assay is HLA-C*06:02. The assay is described as above. Conditions: source organism: Vibrio vulnificus YJ016.
In the next assay the target is HLA-C*12:03. Described as above.
The next assay concerns the target HLA-B*15:42. Description: IEDB peptide-MHC binding, purified MHC/competitive/fluorescence; filed as Kd, often an IC50 or EC50 that approximates it; ≥ and ≤ were set here for values at or beyond the usual limits of such assays.
The target in a further assay is HLA-B*45:06. Described as above.
The next assay addresses HLA-B*46:01. The description is as above. The settings on record: source organism: Vibrio vulnificus YJ016.
Another assay concerns the target HLA-B*83:01. Described as above.
Another assay has as its target HLA-C*04:01. The assay is described as above.
Assay [3] deals with HLA-C*14:02. The assay is described as above. Conditions: source organism: Vibrio vulnificus YJ016.
For another assay, the target named is HLA-C*07:02. In words: IEDB peptide-MHC binding, purified MHC/direct/fluorescence; filed as Kd, often an IC50 or EC50 that approximates it; ≥ and ≤ were set here for values at or beyond the usual limits of such assays. The settings on record: source organism: human gammaherpesvirus 4.
For assay [4], the target named is HLA-C*14:02. Described as above. The settings on record: source organism: human gammaherpesvirus 4.
A further assay addresses HLA-C*15:02. The description is as above. Conditions: source organism: human gammaherpesvirus 4.
The target of a further assay is HLA-A*32:07. Description: IEDB peptide-MHC binding, purified MHC/competitive/fluorescence; filed as Kd, often an IC50 or EC50 that approximates it; ≥ and ≤ were set here for values at or beyond the usual limits of such assays. Conditions: source organism: human gammaherpesvirus 4.
The target in a further assay is HLA-A*32:15. Described as above. The settings on record: source organism: human gammaherpesvirus 4.
For another assay, the target named is HLA-A*68:23. The assay is described as above. Conditions: source organism: human gammaherpesvirus 4.
In the next assay the target is HLA-B*27:20. The assay is described as above. Conditions: source organism: human gammaherpesvirus 4.
Assay [5] concerns the target HLA-B*07:02. The description is as above. Conditions: source organism: Bacillus anthracis str. A2012.
For assay [6], the target named is HLA-B*35:01. The assay is described as above. Conditions: source organism: Bacillus anthracis str. A2012.
A further assay concerns the target HLA-B*51:01. The assay is described as above. Conditions: source organism: Bacillus anthracis str. A2012.
Assay [7] has as its target HLA-A*11:01. The description is as above. Conditions: source organism: Influenza A virus H3N2.
Assay [8] has as its target HLA-A*01:01. Description: IEDB peptide-MHC binding, purified MHC/direct/fluorescence; filed as Kd, often an IC50 or EC50 that approximates it; ≥ and ≤ were set here for values at or beyond the usual limits of such assays.
In a further assay the target is HLA-A*02:01. Described as above.
The next assay has as its target HLA-A*03:01. Described as above.
The target in assay [9] is HLA-A*11:01. The description is as above.
In the next assay the target is HLA-A*26:01. Described as above. The settings on record: source organism: Cryptosporidium parvum.
The target in a further assay is HLA-A*30:01. Described as above. Conditions: source organism: Cryptosporidium parvum.
The target of the next assay is HLA-A*31:01. Described as above. The settings on record: source organism: Cryptosporidium parvum.
The target in another assay is HLA-A*69:01. The description is as above.
The target in assay [10] is HLA-B*07:02. The description is as above. Conditions: source organism: Cryptosporidium parvum.
Another assay concerns the target HLA-B*08:01. Described as above. The settings on record: source organism: Cryptosporidium parvum.
The next assay concerns the target HLA-B*15:01. The assay is described as above.
The target of another assay is HLA-B*27:05. The assay is described as above. The settings on record: source organism: Cryptosporidium parvum.
For a further assay, the target named is HLA-B*40:01. Described as above. The settings on record: source organism: Cryptosporidium parvum.
Assay [11] deals with HLA-B*44:02. Described as above. The settings on record: source organism: Cryptosporidium parvum.
Another assay concerns the target HLA-B*58:01. The description is as above.
The target in the next assay is HLA-B*73:01. The description is as above.
The next assay deals with HLA-C*08:02. Described as above.
Assay [12] deals with HLA-B*44:02. Description: IEDB peptide-MHC binding, purified MHC/competitive/radioactivity; filed as Kd, often an IC50 or EC50 that approximates it; ≥ and ≤ were set here for values at or beyond the usual limits of such assays. Conditions: source organism: Homo sapiens.
The target of another assay is HLA-B*44:03. The description is as above. Conditions: source organism: Homo sapiens.
In a further assay the target is HLA-B*57:01. The assay is described as above. Conditions: source organism: Homo sapiens.
[13] abbreviates: source organism: Vibrio vulnificus YJ016.
The mark [14] stands for this setting: source organism: human gammaherpesvirus 4.
[15] abbreviates: source organism: Mycobacterium tuberculosis CDC1551.
Setting [16] is: source organism: Cryptosporidium parvum.
[17] abbreviates: source organism: Camelpox virus M-96.

With GPFDAVLYY, the IC50 with HLA-A*01:01 [1] was ≥ 172 µM.

Sequence LTESDMDYH yielded an IC50 with HLA-A*01:01 [1] of 41.6 µM.

As to YTMELCGAM, the Kd was 0.028 µM in the assay with HLA-B*35:01 [2]; ≥ 20 µM in the assay with HLA-C*06:02; 0.088 µM with HLA-C*12:03 (setting [13]); ≥ 5 µM with HLA-B*15:42 (setting [13]); ≥ 5 µM with HLA-B*45:06 (setting [13]); 0.018 µM with HLA-B*46:01. Besides, the figures for the Kd with HLA-B*83:01 (setting [13]), with HLA-C*04:01 (setting [13]) and with HLA-C*14:02 [3] were ≥ 5 µM, ≥ 5 µM and ≤ 0.0001 µM, respectively.

Take MMAKSNSPF: the Kd in the assay with HLA-C*07:02 is 3.16 µM; with HLA-C*14:02 [4], 0.008 µM; with HLA-C*15:02 it was ≥ 20 µM; with HLA-A*32:07 it was 0.1 µM; in the assay with HLA-A*32:15, 0.0428 µM; in the assay with HLA-A*68:23, 0.0431 µM. Besides, the Kd is ≥ 5 µM in the assay with HLA-B*15:42 (setting [14]), 0.0487 µM with HLA-B*27:20, ≥ 5 µM with HLA-B*45:06 (setting [14]) and ≥ 5 µM with HLA-B*83:01 (setting [14]).

In the case of YPIVIAPAM, the values for the Kd with HLA-B*07:02 [5], with HLA-B*35:01 [6] and in the assay with HLA-B*51:01 were 0.0138 µM, ≤ 0.0001 µM and 1.01 µM, respectively.

For SFGGFTFK, the Kd in the assay with HLA-A*11:01 [7] was 0.0448 µM.

With RPREATIIY, the Kd in the assay with HLA-B*15:42 (setting [15]), with HLA-B*45:06 (setting [15]), in the assay with HLA-B*83:01 (setting [15]) and with HLA-C*04:01 (setting [15]) was ≥ 5 µM throughout.

For the sequence KHNSAESAK, the Kd is ≥ 20 µM with HLA-A*01:01 [8] (setting [16]); ≥ 20 µM with HLA-A*02:01 (setting [16]); 12.3 µM with HLA-A*03:01 (setting [16]); ≥ 20 µM in the assay with HLA-A*11:01 [9] (setting [16]); ≥ 20 µM in the assay with HLA-A*26:01; 11.9 µM with HLA-A*30:01. The Kd in the assay with HLA-A*31:01, in the assay with HLA-A*69:01 (setting [16]), with HLA-B*07:02 [10], in the assay with HLA-B*08:01, in the assay with HLA-B*15:01 (setting [16]) and in the assay with HLA-B*27:05 was ≥ 20 µM throughout. For the same sequence, the Kd with HLA-B*40:01, with HLA-B*44:02 [11], with HLA-B*58:01 (setting [16]) and with HLA-B*73:01 (source organism: Cryptosporidium parvum Iowa II) was ≥ 20 µM in each case.

YLSSWTPVV: the Kd with HLA-A*02:01 (setting [17]) is ≤ 0.001 µM; with HLA-A*69:01 (setting [17]) it was 0.154 µM; in the assay with HLA-C*08:02 (source organism: Variola virus) it was 0.074 µM.

For the sequence YTAVVPLVY, the Kd is 0.143 µM with HLA-A*01:01 [8] (source organism: Homo sapiens); 4.54 µM with HLA-A*03:01 (source organism: Homo sapiens); 2.5 µM with HLA-A*11:01 [9] (source organism: Homo sapiens); 1.31 µM with HLA-A*69:01 (source organism: Homo sapiens); 0.41 µM in the assay with HLA-B*15:01 (source organism: Homo sapiens); 0.0631 µM in the assay with HLA-B*58:01 (source organism: Homo sapiens). Further, the Kd was ≥ 20 µM with HLA-C*08:02 (source organism: Homo sapiens); 0.171 µM with HLA-C*12:03 (source organism: Homo sapiens); 7.78 µM with HLA-B*44:02 [12]; 5.54 µM with HLA-B*44:03; 0.208 µM with HLA-B*57:01.

Consider FQANMFLTL, for which, in the assay with HLA-B*73:01 (source organism: Bacillus anthracis), the Kd was ≥ 20 µM.

The values are drawn from the Immune Epitope Database (IEDB).
